This is an account of results in patent US11572408B2, “Treatment of cancer with a semaphorin-4D antibody in combination with an epigenetic modulating agent” (Vaccinex, Inc., priority 2017, dated 2023).

Common to all, as to type: in vivo, Balb/c mice
The test system of experiment [1] is Colon26 cells. Briefly: Example 1: Colon26 subcutaneous tumor mouse model, ENT and anti-SEMA4D MAb. The following applies: MAb 67 10 mg/kg ip weekly x5 from day 2, ENT 20 mg/kg 3x/week x2 weeks from tumor volume ~300 mm^3, FIG. 2A. As for the experimental part:
Colon26 cells (500,000 cells) were implanted subcutaneously into Balb/c mice. […] Kaplan-Meier survival analysis was performed to assess survival function, change in tumor volume was measured to determine tumor growth rates, and frequency of complete tumor regression was evaluated by determining the percentage of tumor-free mice. Percent complete regression (% CR) was also stratified by tumors that exceeded at least 100 mm^3 before regressing. Statistical significance was determined using Mantel Cox Log Rank test for survival, 2-way ANOVA for tumor volume, and Fisher's exact test for CR. Prism reports results as non-significant (ns) at P>0.05, significant (symbolized by “*”) at 0.01<P≤0.05, very significant (“**”) at 0.001<P≤0.01, extremely significant (“***”) at P≤0.001, and highest significance (“****”) at P≤0.0001.

Experiment [2] has as its system Colon26 cells. The experiment can be described thus: Example 2: Colon26 subcutaneous tumor mouse model, ENT and anti-SEMA4D MAb. The protocol:
Colon26 cells (500,000 cells) were implanted subcutaneously into Balb/c mice. […] Statistical significance was determined using 2-way ANOVA, Mantel Cox Log Rank test, and Fisher's exact test, respectively. Prism reports results as non-significant (ns) at P>0.05, significant (symbolized by “*”) at 0.01<P≤0.05, very significant (“**”) at 0.001<P≤0.01, and extremely significant (“***”) at P≤0.001.

Experiment [3] relates to Colon26 cells. Briefly: Example 3: Colon26 subcutaneous tumor mouse model, AZA and anti-SEMA4D MAb. The following applies: MAb 67 10 mg/kg ip weekly x4 from day 2, AZA 0.8 mg/kg 3x/week x4 doses from tumor volume ~200 mm^3, FIG. 5A. As for the experimental part: Colon26 cells (500,000 cells) were implanted subcutaneously into Balb/c mice.
Kaplan-Meier survival analysis was performed to assess survival function, change in tumor volume was measured to determine tumor growth rates, and frequency of complete tumor regression was evaluated by determining the percentage of tumor-free mice.

As for `Nc1ccccc1NC(=O)c1ccc(CNC(=O)OCc2cccnc2)cc1` [ENT, pyridin-3-ylmethyl N-[[4-[(2-aminophenyl)carbamoyl]phenyl]methyl] carbamate, reference compound], the “maximal tumor growth delay (TGD)” value in the experiment with Colon26 cells [1] is on record as 214%. Moreover, the “frequency of complete tumor regression” value in the experiment with Colon26 cells [2] (Fisher's exact test) worked out at 25%.

B1: anti-SEMA4D/MAb 67: anti-SEMA4D monoclonal antibody, VH SEQ ID NO: 9 and VL SEQ ID NO: 10 (antibody, V domains shown)
VH: QVQLQQSGPELVKPGASVKISCKASGYSFSDYYMHWVKQSPENSLEWIGQINPTTGGASYNQKFKGKATLTVDKSSSTAYMQLKSLTSEESAVYYCTRYYYGRHFDVWGQGTTVTVSS
VL: DIVMTQSPASLAVSLGQRATISCKASQSVDYDGDSYMNWYQQKPGQPPKLLIYAASNLESGIPARFSGSGSGTDFTLNIHPVEEEDAATYYCQQSNEDPYTFGGGTKLEIK
modifications: Mab 67 VH; Mab 67 VL
Turning to B1, the “maximal tumor growth delay (TGD)” value stood at 107% with Colon26 cells [1]; 119% in the experiment on Colon26 cells [3]; 119% in the experiment on Colon26 cells [2] (MAb 67 10 mg/kg weekly x5 from day 2, ENT 20 mg/kg 3x/week x2 weeks from tumor volume ~250 mm^3, FIG. 3A).
